Measurements reported in patent publication US20040086945A1, “Hairless protein-interacting partner complexes and methods thereto” (The Procter & Gamble Company, priority 2002, published 2004).

B1: Human aldolase A: human HRt interacting partner, GenBank M11560, SEQ ID NO:26/27 (protein, listed as Homo sapiens)
chain: VSKAVEHINKTIAPALVSKKLNVTEQEKIDKLMIEMDGTENKSKFGANAILGVSLAVCKAGAVEKGVPLYRHIADLAGNSEVILPVPAFNVINGGFSCCNKLAMHEVHDPPSRCSKLQGSLRIGTE
B2: Human vesicle-associated membrane protein 2: human HRt interacting partner, GenBank BC002737, SEQ ID NO:22/23 (protein, listed as Homo sapiens)
chain: QGEGKGDGTGSYREGQGPRQQGGHQEAAAAATVCVASLPPPQHPRQLGLAPLPSLHCTLSLKINFQPCLLSTWWVVGMQFGICSTPST
B3: Human small intestine cDNA to mRNA clone HSI10987: human HRt interacting partner, GenBank AK026339, SEQ ID NO:24/25 (protein, listed as Homo sapiens)
chain: CPGRSQGPHCWDAGCSGAPQAQVPSVFSFDFAAVLVLLLYPQELTWTQILGPPWSASSSAFGSGKNSSRTFYSQRQSLSFLCPICISSRRDPP
B4: Human sequence from clone RP4-753, chromosome 21q: human HRt interacting partner, GenBank AL031676, SEQ ID NO:12/13 (protein, listed as Homo sapiens)
chain: TRSSFRSEATPSEPVLVSVHLSVLPARVQPRGMDRARVAVAAGSLAPPVLPPPIQRLRGCSMFYVFLNEDPSDGSSPIPDSGSPSGPRAAPEHPARLPLT
B5: Human monocyte antigen CD14: human HRt interacting partner, GenBank M86511, SEQ ID NO:14/15 (protein, listed as Homo sapiens)
chain: KRINLISQTKRPDRNMSLSRACPCWNGLLTTIKNLELLLEIVTDKSQEGSQFVKGFGGIGGILRYRVDFQGMEYQGGDDEFFDLDDY

Target: T1, mouse HRt (hairless protein aa 490-1182) (Mus musculus, UniProt Q61645)
T1 construct: HR cDNA corresponding to the C-terminal half of HR protein (aa residues 490 to 1182, hereinafter HRt); expressed in transfected cells; host or cells: Saccharomyces cerevisiae PJ69-2A transformed with BD-HRt plasmid, mated with Y187 carrying the human brain cDNA library in pACT2
T1 sequence (Q61645 490-1182): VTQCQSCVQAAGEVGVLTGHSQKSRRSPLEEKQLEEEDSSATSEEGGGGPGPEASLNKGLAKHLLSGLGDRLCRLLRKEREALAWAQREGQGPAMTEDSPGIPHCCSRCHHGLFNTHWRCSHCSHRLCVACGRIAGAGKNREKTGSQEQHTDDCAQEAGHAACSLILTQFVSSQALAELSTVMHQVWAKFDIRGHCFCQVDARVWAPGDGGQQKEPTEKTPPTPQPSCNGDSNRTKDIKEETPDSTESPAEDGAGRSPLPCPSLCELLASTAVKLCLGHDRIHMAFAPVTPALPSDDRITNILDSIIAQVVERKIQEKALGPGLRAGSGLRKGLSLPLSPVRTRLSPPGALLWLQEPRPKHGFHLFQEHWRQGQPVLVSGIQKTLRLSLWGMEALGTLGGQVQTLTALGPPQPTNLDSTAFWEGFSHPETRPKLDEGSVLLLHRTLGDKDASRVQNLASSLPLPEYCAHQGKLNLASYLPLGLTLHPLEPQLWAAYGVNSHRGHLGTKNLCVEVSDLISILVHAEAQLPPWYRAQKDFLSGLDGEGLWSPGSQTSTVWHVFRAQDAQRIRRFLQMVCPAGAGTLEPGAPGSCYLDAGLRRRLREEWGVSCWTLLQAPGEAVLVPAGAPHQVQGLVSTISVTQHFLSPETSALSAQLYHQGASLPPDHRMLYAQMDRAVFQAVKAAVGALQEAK
Experiment: Yeast two-hybrid screen of BD-HRt against human brain cDNA library in AD vector, lacZ coloration on QDO-Xgal plates
Type: cell-based
Conditions: BD-HRt(mouse) x human brain cDNA library in AD-vector
Excerpt: The present example provides for Hairless Protein (HR) interacting partners (HR-IP) using the yeast two-hybrid technology. […] Yeast cells expressing BD-HRt are mated with yeast cells pretransformed with human brain cDNA library in the activation domain (AD) vector.
Cloning of HRt into GAL4 binding domain (BD) yeast two-hybrid (Y2H) vector: The HRt insert from pET32a-HRt is excised as an Eco RI-Xho I fragment (there is a unique Xho I site just adjacent to HRt insert) and inserted at the Eco RI-Sal I sites of Y2H-BD vector pGBKT7 (Catalog No. K1612-B; a component of Matchmaker two-hybrid System 3 (Catalog No. K1612-1) BD Biosciences Clontech, Palo Alto, Calif.) to obtain pGBKT7-HRt in which HRt is fused in-frame to GAL 4 DNA BD (this plasmid is also designated BD-HRt).
Pretransformed human brain […] cDNA Library Screen for HRt interaction partners: Pretransformed human brain […] high-complexity GAL4 cDNA library that has already been amplified and introduced into yeast strain Y187 (MATα) is used to screen for HRt interacting proteins. […] The library host strain Y187 provides a third reporter gene (lacZ) for optional quantification of signal strength. The protocol as described in Clontech user manual (PT3183-1) is used. Briefly, the library is mixed with PJ69-2A strain that has been transformed with the BD-HRt plasmid in YPD medium containing adenine hemisulfate (0.004%) and kanamycin (0.005%) and incubated for 20-24 h at 30° C. The next day, the mating mixture is plated on Leu, Trp, His TDO that selects for two-hybrid interactions, and then the positive clones are screened for growth on Leu, Trp, His, Ade QDO, which is a more stringent condition for interaction. Colonies that grew well on QDO are also screened for lacZ expression by streaking on QDO-Xgal plates. Based on a visual assessment of colonies for the intensity of blue color, the clones are classified into high (H), medium (M), low (L) or very low (VL) categories.
The positive clones are expected to contain an AD-IP (interacting partner) that interacts with BD-HRt. To characterize IP, the sequence of IP is determined and matched to the human genome database. For this purpose, total DNA is isolated from the positive clones and PCR amplified with […] AD LD (long distance)-insert screening amplimers (Catalog No.9103-1; BD Biosciences Clontech, PaloAlto, Calif.). Reaction is conducted in 50 μl volume for 35 cycles using the conditions recommended with the Advantage2 PCR kit (Catalog No. K1910-1; BD Biosciences Clontech, PaloAlto, Calif.).

| Molecule | XGAL (rate and intensity of coloration of colonies on Xgal) |
| --- | --- |
| Human Sphingolipid activator protein: human HRt interacting partner, GenBank M60255, SEQ ID NO:16/17 (PLPPPCLLPLPRPPLLPRLGRVVPLHPLQTSPVTGDCSRPRPRWMRWWTS; listed as Homo sapiens) | M (M = Medium blue in 3-5 days) |
| Human cDNA FLJ20456 fis clone KAT05827: human HRt interacting partner, GenBank AK000463, SEQ ID NO:74/75 | L/VL |
| Human ankyrin repeat containing protein ASB-2: human HRt interacting partner, GenBank AF159164, SEQ ID NO:38/39 | M (M = Medium blue in 3-5 days) |
| Human Thy-1 glycoprotein: human HRt interacting partner, GenBank AF261093, SEQ ID NO:66/67 | L (L = Low blue in 5-7 days) |
| Human pre-B cell colony enhancing factor (PBEF): human HRt interacting partner, GenBank U02020, SEQ ID NO:55 | L (L = Low blue in 5-7 days) |
| Human synuclein-beta: human HRt interacting partner, GenBank BC002902, SEQ ID NO:18/19 (FCPTPTATPCRNSPGVTSGGPRPCWARLMEVPQERTRTAWCSTPRLPSRSRSSASVMM; listed as Homo sapiens) | M (M = Medium blue in 3-5 days) |
| Human C11 protein: human HRt interacting partner, GenBank X81625, SEQ ID NO:20/21 | M (M = Medium blue in 3-5 days) |
| Human tyrosine phosphatase type 1VA, member 2: human HRt interacting partner, GenBank U14603, SEQ ID NO:51/52 | L (L = Low blue in 5-7 days) |
| Human genomic region containing hypervariable mini satellites Chromosome 10[10q26.3]: human HRt interacting partner, GenBank AL096810, SEQ ID NO:64/65 (NMKNRMMWRVMTLEKTRVNIIQTHLLCLLLIQMK; listed as Homo sapiens) | L (L = Low blue in 5-7 days) |
| Human cDNA: FLJ23187 fis, clone: LNG11989: human HRt interacting partner, GenBank AK026840, SEQ ID NO:78/79 | L (L = Low blue in 5-7 days) |
| Human mRNA for C11ORF25 gene: interacting partner nucleic acid, homology in a 3'-untranslated region, GenBank AJ300461, SEQ ID NO:94 (DNA CTATTCGATGATGAAGATACCCCACCAAACCCA; listed as DNA, chemistry not fully specified; the letters are possibly those of the target site) | VL (VL = Very Low blue in 10 days) |
| HUMFGF1A Human fibroblast growth factor (FGF) receptor-1 mRNA: interacting partner nucleic acid, homology in a 3'-untranslated region, GenBank M34641, SEQ ID NO:92 | VL (VL = Very Low blue in 10 days) |
| Human hypothetical protein: human HRt interacting partner, GenBank BC006358, SEQ ID NO:34/35 | M (M = Medium blue in 3-5 days) |
| Human ubiquitous receptor UR: human HRt interacting partner, GenBank E11456, SEQ ID NO:1/2 | H/M |
| Human ubiquitin: human HRt interacting partner, GenBank AR075562, SEQ ID NO:70/71 (EKFAPKKQGDGGKDLPTEAKKRAAEFCRGALC; listed as Homo sapiens) | L/VL |
| B1 | M (M = Medium blue in 3-5 days) |
| B2 | M (M = Medium blue in 3-5 days) |
| B3 | M (M = Medium blue in 3-5 days) |
| B4 | H (H = Intense blue within 2-3 days) |
| B5 | H (H = Intense blue within 2-3 days) |
